These results are taken from PMC7644948 (iScience, 2020).

This data set concerns the molecule itself. Description: SEC. In general terms: Size exclusion chromatography separates by hydrodynamic size, large species first.

A word on the stoichiometry N: it is a count of units in the complex or per binding partner.

B1: PKM2 mutant with triple mutations (R399E, K422A, and N523A) (enzyme)
chain: not shown
Consider B1, for which the “stoichiometry N” value came to 2.
